This note sets out measurements from the nanobody polyreactivity screen of Harvey et al. (2022).

A short description of the data set: yeast display, Sf9 membrane polyspecificity reagent, FACS + sequencing; frameworks hold sequencing errors. In a few lines:
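Genes from sorted yeast were amplified by colony PCR, read by MiSeq 2 × 250 sequencing and filtered on CDR length. These cells carried a synthetic nanobody library in Saccharomyces cerevisiae BJ5465 and were sorted by FACS into low and high (top ~1%) gates on anti-HA and streptavidin fluorescence. Polyreactivity is labelled according to the gate of origin.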
Regarding “QDQLVESGGGLVQAGGSLRLSCAASGLTFDWYTMGWYRQAPGKERELVATINSGGSTDYADSVKGRFTISRDNAKNTVYLQMNSLKPEDTAVYYCNAEYGYSGVGDDYWGQGTQVTVSS”, the “polyreactivity (PSR sort gate)” value was “low polyreactivity”.

As to “QDQLVESGGGLVQAGGSLRLSCAASGLTFKYYTMGWYRQAAGKERELVAYISRTGRTSYADSVKGRFTISRDNAKNTVYLQMNSLNPEDTGVYYCNADFYVSGYSLFDSIYDYWGQGTQVTVSS”, the “polyreactivity (PSR sort gate)” value is reported as “high polyreactivity”.

For the sequence “QDQLVESGGGLVQAGGSLRLSCAASGLTFQSYAMGWYRQAPGKERELVATISNGSSTYYADSVKGRFTISRDNAKNTVYLQMNSLKPEDTAVYYFAKDYYYSRNPLYGLDYWGQGTQVTVSS”, the “polyreactivity (PSR sort gate)” value was “low polyreactivity”.

With “QDQLVESGGGLVQAGGSLRLSCAASGLTFQYNTMGWYRQAPGKERELVARINWGGDSTYYADSVKGRFTISRDNAKNTVYLQLYSLKPEVTAVYYCAAPGYSGRYGYYTYYLYVYWGQGTQVTVSS”, the “polyreactivity (PSR sort gate)” value is reported as “low polyreactivity”.

With “QDQLVESGGGLVQAGGSLRLSCAASGLTYRLNAMGWYRQAPGKEREFVAAISAIGDRTYYADSVKGRFTISRDNAKNTVYLQMNSLKPEDTSVYYCNVTPRSAQVRIGNYWGQGTQVTVSS”, the “polyreactivity (PSR sort gate)” value is “high polyreactivity”.

“QDQLVESGGGLVQAGGSLRLSCAASGNNYWTNAMGWYRQAPGKERELVAAISWSGDSTYYADSVKGRFTISRDNAKNTVYLQLNSLKPEDTAVYYCAVLDVYRYRMDYWGQGTQVTVSS”: the “polyreactivity (PSR sort gate)” value is listed as “low polyreactivity”.

Take “QDQLVESGGGLVQAGGSLRLSCAASGNTFTVNAMGWYRQAPGKERELVATINSTGGSTYYADSVKGRFTISRDNAKNTVYLQMNSLKPEDPAVYYAGSSNSFAFGGYDYWGQGTQVTVSS”: the “polyreactivity (PSR sort gate)” value is on record as “low polyreactivity”.

On to “QDQLVESGGGLVQAGGSLRLSCAASGPIFYSNAMGWYRQAPGKERELVAAISSGDGITYYADSVKGRFTISRDNAKNTVYLQMNSLKPEDTAVYYCAADGYYDYPYSGDYWGQGTQVTVSS”, for which the “polyreactivity (PSR sort gate)” value is listed as “high polyreactivity”.

Take “QDQLVESGGGLVQAGGSLRLSCAASGRIFAGYAMGWYRQAPGKERELVASIRSSGSTYYADSVKGRFTISRDNAKNTVYLQMNSLKPEDTAVYYCAARSGYFRSRFDYWGQCTQVTVSS”: the “polyreactivity (PSR sort gate)” value was “high polyreactivity”.

For “QDQLVESGGGLVQAGGSLRLSCAASGRIFFTNAMGWYRQAPGKERELVASIDDTGSTNYADSVKGRFTISRDNAKNTVYLQMNSLKPEDTATSTQGDYWGQGTQVTVSS”, the “polyreactivity (PSR sort gate)” value was “low polyreactivity”.

For “QDQLVESGGGLVQAGGSLRLSCAASGRIFKSYAMGWYRQAPGKERELVAAIGSRTYYADSVKGRFTISRDNAKNTVYLQMNSLKPEDTAVYYCAVEVWGNSKRYYYWGQGTQVTVSS”, the “polyreactivity (PSR sort gate)” value is “high polyreactivity”.

On to “QDQLVESGGGLVQAGGSLRLSCAASGRIFPYYAMGWYRQAPGTERELVAAINSGGSTYYADSVKGRFPISRDNAKNTVYLQMNSLKPEDTAVNYCNADVLYEDGFFWDDYWGQGTQVTVSS”, for which the “polyreactivity (PSR sort gate)” value is given as “low polyreactivity”.

Regarding “QDQLVESGGGLVQAGGSLRLSCAASGRIFRYYTRGWYRQAPGKERELVAAIRWSGSTTYYADSVKGRFTISRDYAKNTVYLLMNSLKPEDTAVYYCDARWSYPRWEFDYWGQGTQVTVSS”, the “polyreactivity (PSR sort gate)” value is on record as “high polyreactivity”.

On to “QDQLVESGGGLVQAGGSLRLSCAASGRIFTGNAMGWYRQAHGKERELVAAISASGSSTYYADSVKGRFTISRDNAKNTVYLQMNSLKPEDTAVYYCAADGWYGYYYWGQGTLVTVSS”, for which the “polyreactivity (PSR sort gate)” value is “high polyreactivity”.

“QDQLVESGGGLVQAGGSLRLSCAASGRIFTGNVMGWYRQAPGKERELVAAITYRGGSTYYADSVKGRFTISRDNAKNTVFLQMNSLKPEDTAVYYCNTGWDPYGYDYWGQGTQVTVSS”: the “polyreactivity (PSR sort gate)” value was “low polyreactivity”.

Turning to “QDQLVESGGGLVQAGGSLRLSCAASGRIFVYYVMGLYRQAPGKERELVAAITYSGGSTYYADSVKGRFTISRDNAKNTVYLQMNSLKPEDTAVYYCNNVDAFGIVRLYYWGQGTQVTVSS”, the “polyreactivity (PSR sort gate)” value is given as “low polyreactivity”.

Regarding “QDQLVESGGGLVQAGGSLRLSCAASGRIFYPYVMGWYRQAPGKERELVAAISDSTGSTYYADSVKGRFTISRDNAKNTVYLQMNSLKPEDTAVYYWGQGTQVTVSS”, the “polyreactivity (PSR sort gate)” value is listed as “low polyreactivity”.

“QDQLVESGGGLVQAGGSLRLSCAASGRIFYTNGMGWYRQAPGKERELVAAITYSGGNTFYADSVKGRFTISRDNAKNTVYLQMNSLKPEDTAVYYCAATFTYLGYWYDYWGQGTQVTVSS”: the “polyreactivity (PSR sort gate)” value is “low polyreactivity”.

“QDQLVESGGGLVQAGGSLRLSCAASGRIIRQYAMGWYRQAPGKERELVAVISAGGARTYYADSVKGRFTISRDNAKNTVYLQMNSLKPEDTAVYYCAVSYPPGAYRRHFRYGYWGQGTQVTVSS”: the “polyreactivity (PSR sort gate)” value is listed as “high polyreactivity”.

For the sequence “QDQLVESGGGLVQAGGSLRLSCAASGRILAYYAMGWSRQAPGKERELVAAISRAGSTNYADSVKGRFTISRDNAKNTVYLQMNSLKPEDTAVYYCAARPYRRGYNYWGQGTQVTVSS”, the “polyreactivity (PSR sort gate)” value is given as “high polyreactivity”.
